{"source": "IntAct's records for PubMed 15009215", "parents": {"B1": {"name": "Emerin (Homo sapiens), P50402 (parent)", "chain": "MDNYADLSDTELTTLLRRYNIPHGPVVGSTRRLYEKKIFEYETQRRRLSPPSSSAASSYSFSDLNSTRGDADMYDLPKKEDALLYQSKGYNDDYYEESYFTTRTYGEPESAGPSRAVRQSVTSFPDADAFHHQVHDDDLLSSSEEECKDRERPMYGRDSAYQSITHYRPVSASRSSLDLSYYPTSSSTSFMSSSSSSSSWLTRRAIRPENRAPGAGLGQDRQVPLWGQLLLFLVFVIVLFFIYHFMQAEEGNPF"}}, "data": [{"variants_of": "B1", "conditions": "with bclf1_human BCLAF1, Q9NYF8", "values": [{"variant": "MDNYADLSDTELTTLLRRYNIPHGPVVGSTRRLYEKKIFEYETQAAALSPPSSSAASSYSFSDLNSTRGDADMYDLPKKEDALLYQSKGYNDDYYEESYFTTRTYGEPESAGPSRAVRQSVTSFPDADAFHHQVHDDDLLSSSEEECKDRERPMYGRDSAYQSITHYRPVSASRSSLDLSYYPTSSSTSFMSSSSSSSSWLTRRAIRPENRAPGAGLGQDRQVPLWGQLLLFLVFVIVLFFIYHFMQAEEGNPF", "note": "[R45A;R46A;R47A]", "effect of a mutation on the interaction": "decreasing interaction"}, {"variant": "MDNYADLSDTELTTLLRRYNIPHGPVVGSTRRLYEKKIFEYETQRRRLSPPSSFAASSYSFSDLNSTRGDADMYDLPKKEDALLYQSKGYNDDYYEESYFTTRTYGEPESAGPSRAVRQSVTSFPDADAFHHQVHDDDLLSSSEEECKDRERPMYGRDSAYQSITHYRPVSASRSSLDLSYYPTSSSTSFMSSSSSSSSWLTRRAIRPENRAPGAGLGQDRQVPLWGQLLLFLVFVIVLFFIYHFMQAEEGNPF", "note": "[S54F]", "effect of a mutation on the interaction": "decreasing interaction"}, {"variant": "MDNYADLSDTELTTLLRRYNIPHGPVVGSTRRLYEKKIFEYETQRRRLSPPSSSAASSYSFSDLNSTRGAAAMADLPKKEDALLYQSKGYNDDYYEESYFTTRTYGEPESAGPSRAVRQSVTSFPDADAFHHQVHDDDLLSSSEEECKDRERPMYGRDSAYQSITHYRPVSASRSSLDLSYYPTSSSTSFMSSSSSSSSWLTRRAIRPENRAPGAGLGQDRQVPLWGQLLLFLVFVIVLFFIYHFMQAEEGNPF", "note": "[D70A;D72A;Y74A]", "effect of a mutation on the interaction": "decreasing interaction"}, {"variant": "MDNYADLSDTELTTLLRRYNIPHGPVVGSTRRLYEKKIFEYETQRRRLSPPSSSAASSYSFSDLNSTRGDADMYDAPAKADAALYQSKGYNDDYYEESYFTTRTYGEPESAGPSRAVRQSVTSFPDADAFHHQVHDDDLLSSSEEECKDRERPMYGRDSAYQSITHYRPVSASRSSLDLSYYPTSSSTSFMSSSSSSSSWLTRRAIRPENRAPGAGLGQDRQVPLWGQLLLFLVFVIVLFFIYHFMQAEEGNPF", "note": "[L76A;K78A;E80A;L83A]", "effect of a mutation on the interaction": "decreasing interaction"}, {"variant": "MDNYADLSDTELTTLLRRYNIPHGPVVGSTRRLYEKKIFEYETQRRRLSPPSSSAASSYSFSDLNSTRGDADMYDLPKKEDALLYQSKGYNDDYYEESYFTTRTYGEPESAGPSRAVRQSVTSFPDADAFHHQVHDDDLLSSSEEECKDRERPMYGRDSAYQSITHYRPVSASRAALDLSYYPTSSSTSFMSSSSSSSSWLTRRAIRPENRAPGAGLGQDRQVPLWGQLLLFLVFVIVLFFIYHFMQAEEGNPF", "note": "[S175A;S176A]", "effect of a mutation on the interaction": "decreasing interaction"}, {"variant": "MDNYADLSDTELTTLLRRYNIPHGPVVGSTRRLYEKKIFEYETQRRRLSPPSSSAASSYSFSDLNSTRGDADMYDLPKKEDALLYQSKGYNDDYYEESYFTTRTYGEPESAGPSRAVRQSVTSFPDADAFHHQVHDDDLLSSSEEECKDRERPMYGRDSAYQSITHYRPVSASRSSLDLSYYPTSSSTSFMASAAASSSWLTRRAIRPENRAPGAGLGQDRQVPLWGQLLLFLVFVIVLFFIYHFMQAEEGNPF", "note": "[S192A;S194A;S195A;S196A]", "effect of a mutation on the interaction": "decreasing interaction"}, {"variant": "MDNYADLSDTELTTLLRRYNIPHGPVVGSTRRLYEKKIFEYETQRRRLSPPSSSAASSYSFSDLNSTRGDADMYDLPKKEDALLYQSKGYNDDYYEESYFTTRTYGEPESAGPSRAVRQSVTSFPDADAFHHQVHDDDLLSSSEEECKDRERPMYGRDSAYQSITHYRPVSASRSSLDLSYYPTSSSTSFMSSSSSAASWLTRRAIRPENRAPGAGLGQDRQVPLWGQLLLFLVFVIVLFFIYHFMQAEEGNPF", "note": "[S197A;S198A]", "effect of a mutation on the interaction": "decreasing interaction"}, {"variant": "MDNYADLSDTELTTLLRRYNIPHGPVVGSTRRLYEKKIFEYETQRRRLSPPSSSAASSYSFSDLNSTRGDADMYDLPKKEDALLYQSKGYNDDYYEESYFTTRTYGEPESAGPSRAVRQSVTSFPDADAFHHQVHDDDLLSSSEEECKDRERPMYGRDSAYQSITHYRPVSASRSSLDLSYYPTSSSTSFMSSSSSSSSWLTRRAAAPANRAPGAGLGQDRQVPLWGQLLLFLVFVIVLFFIYHFMQAEEGNPF", "note": "[I206A;R207A;E209A]", "effect of a mutation on the interaction": "decreasing interaction"}, {"variant": "MDNYADLSDTELTTLLRRYNIPHGPVVGSTRRLYEKKIFEYETQRRRLSPPSSSAASSYSFSDLNSTRGDADMYDLPKKEDALLYQSKGYNDDYYEESYFTTRTYGEPESAGPSRAVRQSVTSFPDADAFHHQVHDDDLLSSSEEECKDRERPMYGRDSAYQSITHYRPVSASRSSLDLSYYPTSSSTSFMSSSSSSSSWLTRRAIAAENRAPGAGLGQDRQVPLWGQLLLFLVFVIVLFFIYHFMQAEEGNPF", "note": "[R207A;P208A]", "effect of a mutation on the interaction": "decreasing interaction"}, {"variant": "MDNYADLSDTELTTLLRRYNIPHGPVVGSTRRLYEKKIFEYETQRRRLSPPSSSAASSYSFSDLNSTRGDADMYDLPKKEDALLYQSKGYNDDYYEESYFTTRTYGEPESAGPSRAVRQSVTSFPDADAFHHQVHDDDLLSSSEEECKDRERPMYGRDSAYQSITHYRPVSASRSSLDLSYYPTSSSTSFMSSSSSSSSWLTRRAIRPENRAPAAGAGQDRQVPLWGQLLLFLVFVIVLFFIYHFMQAEEGNPF", "note": "[G214A;L217A]", "effect of a mutation on the interaction": "decreasing interaction"}]}]}
